Laboratory results as given in PMC8752827, “Towards a generic prototyping approach for therapeutically-relevant peptides and proteins in a cell-free translation system” (Nature Communications, 2022).
pIC50: −log10 of the molar value.

The substances below were run against Trypsin (assay: trypsin-inhibitory assay (residual enzyme activity on a fluorogenic substrate); 100 pM trypsin pre-incubated with peptide (twofold dilution series) for 3 h at room temperature in 0.1 M NaCl, 10 mM CaCl2, 0.005% Triton X-100, 0.1 M Tris-HCl pH 8.0; residual activity with 10 uM Boc-Q-A-R-7-amido-4-methyl-coumarin; IC50 from a nonlinear fit of initial velocities (Prism)).
Sequence of Trypsin (P00760 24-246): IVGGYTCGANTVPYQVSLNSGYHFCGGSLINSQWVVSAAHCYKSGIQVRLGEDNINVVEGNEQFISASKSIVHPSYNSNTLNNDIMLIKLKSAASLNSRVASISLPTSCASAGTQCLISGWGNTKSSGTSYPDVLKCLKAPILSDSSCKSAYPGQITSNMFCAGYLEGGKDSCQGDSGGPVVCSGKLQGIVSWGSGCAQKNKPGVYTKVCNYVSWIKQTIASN

pIC50	Substance
9.48	cell-free synthesized linear oxidized circularly permuted SFTI (prmSFTI) (peptide)
9.44	chemically synthesized linear oxidized circularly permuted SFTI (prmSFTI) (peptide)

Substance	pIC50
chemically synthesized backbone-cyclic sunflower trypsin inhibitor (SFTI) (peptide)	9.77
